Measurements from paper PMC5457915, “Real-time analysis of the binding of fluorescent VEGF165a to VEGFR2 in living cells: Effect of receptor tyrosine kinase inhibitors and fate of internalized agonist-receptor complexes” (Biochemical Pharmacology, 2017).

Target: VEGFR2 (Homo sapiens, UniProt P35968)
Test: NFAT luciferase reporter gene assay in HEK293T ReLuc2P cells stably expressing wild-type VEGFR2
Assay type: cell-based
Set-up: in cells expressing the wild-type VEGFR2 receptor; host or cells: HEK293T ReLuc2P suspension cell line
Details: cells expressing the wild-type VEGFR2 receptor; n = 4
Description: NFAT luciferase reporter gene activity was monitored in a HEK293T ReLuc2P (Promega Corporation, USA) suspension cell line stably expressing VEGFR2 as described previously.
NFAT reporter genes: All data obtained from the NFAT luciferase reporter gene assays were normalised to 10 nM VEGF165a responses and fitted with non linear regression using the equation as described previously.

VEGFR2, sequence (P35968 20-1356): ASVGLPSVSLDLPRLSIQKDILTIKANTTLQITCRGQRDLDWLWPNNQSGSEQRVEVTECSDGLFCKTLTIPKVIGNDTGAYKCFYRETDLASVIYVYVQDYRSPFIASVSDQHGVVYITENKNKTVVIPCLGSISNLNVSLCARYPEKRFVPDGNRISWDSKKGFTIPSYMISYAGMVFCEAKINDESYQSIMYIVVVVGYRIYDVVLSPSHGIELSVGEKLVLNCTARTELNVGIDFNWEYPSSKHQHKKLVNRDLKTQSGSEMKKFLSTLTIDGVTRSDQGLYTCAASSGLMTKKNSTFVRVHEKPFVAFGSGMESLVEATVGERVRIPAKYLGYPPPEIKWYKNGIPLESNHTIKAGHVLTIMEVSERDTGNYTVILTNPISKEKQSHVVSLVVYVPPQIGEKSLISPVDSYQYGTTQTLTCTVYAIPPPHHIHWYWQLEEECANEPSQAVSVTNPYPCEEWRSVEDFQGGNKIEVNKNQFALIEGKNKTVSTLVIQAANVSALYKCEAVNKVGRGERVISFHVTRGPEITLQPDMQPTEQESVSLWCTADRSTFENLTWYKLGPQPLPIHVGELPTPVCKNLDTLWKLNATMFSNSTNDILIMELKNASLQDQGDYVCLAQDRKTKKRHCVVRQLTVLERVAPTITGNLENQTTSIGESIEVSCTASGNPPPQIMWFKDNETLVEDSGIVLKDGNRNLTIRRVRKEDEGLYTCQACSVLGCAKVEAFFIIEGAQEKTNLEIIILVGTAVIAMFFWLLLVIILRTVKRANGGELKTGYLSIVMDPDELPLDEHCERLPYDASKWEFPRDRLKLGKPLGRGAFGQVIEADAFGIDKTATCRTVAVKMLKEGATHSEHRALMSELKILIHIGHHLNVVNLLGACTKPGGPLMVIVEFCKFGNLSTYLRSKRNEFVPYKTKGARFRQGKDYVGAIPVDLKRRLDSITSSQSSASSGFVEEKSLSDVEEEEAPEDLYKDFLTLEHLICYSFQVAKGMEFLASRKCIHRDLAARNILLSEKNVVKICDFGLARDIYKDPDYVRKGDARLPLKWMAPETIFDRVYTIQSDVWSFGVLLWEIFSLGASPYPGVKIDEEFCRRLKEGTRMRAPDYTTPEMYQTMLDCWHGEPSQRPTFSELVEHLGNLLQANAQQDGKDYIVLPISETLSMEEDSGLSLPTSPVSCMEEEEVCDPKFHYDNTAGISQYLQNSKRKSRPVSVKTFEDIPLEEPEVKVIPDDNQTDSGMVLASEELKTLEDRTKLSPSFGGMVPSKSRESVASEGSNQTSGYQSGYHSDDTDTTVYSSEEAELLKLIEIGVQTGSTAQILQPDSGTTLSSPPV

- pEC50, NFAT reporter gene agonist activity: 9.72 ± 0.09
B1: non-fluorescent VEGF165a: unlabeled VEGF165a purified in an identical manner to VEGF165a-TMR, with modified N-terminus (protein)
chain: CDNAPMAEGGGQNHHEVVKFMDVYQRSYCHPIETLVDIFQEYPDEIEYIFKPSCVPLMRCGGCCNDEGLECVPTEESNITMQIMRIKPHQGQHIGEMSFLQHNKCECRPKKDRARQENPCGPCSERRKHLFVQDPQTCKCSCKNTDSRCKARQLELNERTCRCDKPRR
modifications: free N-terminal Cys (unlabeled); HEK293T-expressed, glycosylated; disulfide-linked antiparallel homodimer
